Laboratory results as given in patent US20130280736A1 (MOUNT SINAI HOSPITAL, published 2013).
Each block holds one binder with its values, some of them ahead of it.

Key:
HIF-1αP402R-P564R = test: Western blot of lysates of transfected JEG3 cells, β-actin as loading control
Experimental: Thus, the antibodies may be useful in predicting the severity of preeclampsia. The monoclonal antibodies were affinity purified, their IgG isotype was determined and their specificity validated (see Table 2 and FIGS. 7 and 8). The antibodies were validated using the following strategy. […] Following transfection with the various HIF-1α constructs, JEG-3 choriocarcinoma and HEK293 cells were cultured with proteosomal inhibitor MG-132 to prevent HIF degradation and Western blot and immunofluorescence analyses were used to establish the specificity and utility of the various clones. Validation experiments were run in parallel using both purified and non-purified clones to rule out potential changes in antibody performance following purification. The Western blot results unequivocally indicate that clones 1H1, 6H4 and 5A5 recognize HIF-P402^OH; clone 6A9 recognizes HIF-P564^OH; clone 7D6 recognizes both HIF-P402^OH and HIF-P64^OH; and clone 7E3 is excellent to detect total HIF-1α. […] Immunofluorescence analysis was conducted in cells and tissue sections.

[1] = biological target: T1, prolyl-4-hydroxylase 2 (PHD2) (human, UniProt Q9GZT9 2-426, limits assumed); test: preliminary experiments, method not described
T1 construct: Endogenous protein in human placental tissues
T1 sequence (Q9GZT9 2-426 limits assumed): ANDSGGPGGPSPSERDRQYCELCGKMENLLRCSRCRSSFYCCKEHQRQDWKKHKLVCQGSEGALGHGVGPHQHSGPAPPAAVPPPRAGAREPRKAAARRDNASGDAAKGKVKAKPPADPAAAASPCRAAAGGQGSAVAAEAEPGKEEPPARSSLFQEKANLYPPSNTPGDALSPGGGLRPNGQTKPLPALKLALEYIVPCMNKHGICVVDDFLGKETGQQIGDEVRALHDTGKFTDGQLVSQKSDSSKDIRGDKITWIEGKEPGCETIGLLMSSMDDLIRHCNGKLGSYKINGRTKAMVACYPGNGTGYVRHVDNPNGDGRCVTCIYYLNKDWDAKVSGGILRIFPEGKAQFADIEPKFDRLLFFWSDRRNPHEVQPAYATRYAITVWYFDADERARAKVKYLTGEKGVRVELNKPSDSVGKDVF

Sequence of HIF-1αP402R-P564R (chain, as listed by the source P402R P564R P402R P564R limits assumed): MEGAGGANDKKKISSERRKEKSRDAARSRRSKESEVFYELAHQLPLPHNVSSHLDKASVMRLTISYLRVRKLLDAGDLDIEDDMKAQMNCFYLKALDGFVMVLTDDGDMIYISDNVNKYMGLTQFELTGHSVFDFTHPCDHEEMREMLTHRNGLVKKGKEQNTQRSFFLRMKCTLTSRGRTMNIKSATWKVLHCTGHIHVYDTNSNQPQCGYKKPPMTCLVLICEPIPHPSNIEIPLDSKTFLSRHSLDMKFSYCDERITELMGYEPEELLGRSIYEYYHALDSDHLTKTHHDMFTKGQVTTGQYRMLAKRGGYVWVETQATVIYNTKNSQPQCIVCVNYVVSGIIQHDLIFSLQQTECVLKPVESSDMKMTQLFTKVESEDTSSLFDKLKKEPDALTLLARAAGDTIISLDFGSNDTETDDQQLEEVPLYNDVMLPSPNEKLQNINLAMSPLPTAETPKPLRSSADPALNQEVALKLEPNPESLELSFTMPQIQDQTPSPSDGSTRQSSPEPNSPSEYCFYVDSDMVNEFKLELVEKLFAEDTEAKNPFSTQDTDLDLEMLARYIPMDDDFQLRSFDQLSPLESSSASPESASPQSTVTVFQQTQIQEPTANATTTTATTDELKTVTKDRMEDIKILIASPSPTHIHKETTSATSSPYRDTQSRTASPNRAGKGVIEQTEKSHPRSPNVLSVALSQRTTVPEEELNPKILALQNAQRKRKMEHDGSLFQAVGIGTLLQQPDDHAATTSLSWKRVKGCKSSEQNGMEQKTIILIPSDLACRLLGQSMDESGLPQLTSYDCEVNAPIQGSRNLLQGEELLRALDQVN

binding result (HIF-1αP402R-P564R): no binding
B1: monoclonal antibody clone 6A9 (antibody, V domains shown)
VH: DVQLVESGGGLVQPGGSRKLSCAASGFTFSSFGMHWVRQAPEKGLEWVAFISSGSHTIFYADTVKGRFTISRDNPKNTLFLQMTSLRSEDTAMYYCTRDYNAYWGQGTLVTVSA
VL: DVLMTQTPLSLPVSLGDQASISCRSSQSIVHSNGNTYLEWYLQKPGQSPKLLIYKVSNRFSGVPDRFSGSGSGTDFTLKISRVEAEDLGVYYCFQGTHVPLTFGAGTKLEL
notes: also called anti-HIF-1αP564^OH

binding result [1]: binds
B2: prolyl-4-hydroxylase 3 (PHD3) (enzyme, human, UniProt Q9H6Z9 1-239, looked up)
chain: MPLGHIMRLDLEKIALEYIVPCLHEVGFCYLDNFLGEVVGDCVLERVKQLHCTGALRDGQLAGPRAGVSKRHLRGDQITWIGGNEEGCEAISFLLSLIDRLVLYCGSRLGKYYVKERSKAMVACYPGNGTGYVRHVDNPNGDGRCITCIYYLNKNWDAKLHGGILRIFPEGKSFIADVEPIFDRLLFFWSDRRNPHEVQPSYATRYAMTVWYFDAEERAEAKKKFRNLTRKTESALTED
notes: Endogenous protein in human placental tissues; the method of the preliminary experiment is not described
